Reference: patent CN111423515A (BETA PHARMA INC, dated 2020)

T1: human CD20 on cells (CHO-K1/CD20) (human, UniProt P11836 1-297)
T1 construct: whole, on cells; also called CHO-K1/hCD20; CHO-K1/human CD20
T1 sequence (looked up): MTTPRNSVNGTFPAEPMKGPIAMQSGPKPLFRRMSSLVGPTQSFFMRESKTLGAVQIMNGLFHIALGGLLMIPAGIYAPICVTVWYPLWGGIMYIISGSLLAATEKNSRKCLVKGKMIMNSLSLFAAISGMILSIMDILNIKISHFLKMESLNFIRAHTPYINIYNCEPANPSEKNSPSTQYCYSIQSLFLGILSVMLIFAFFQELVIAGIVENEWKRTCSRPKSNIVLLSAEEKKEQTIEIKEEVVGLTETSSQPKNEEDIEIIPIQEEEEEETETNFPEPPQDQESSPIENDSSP


How the values were obtained:
[1] = target: T1, human CD20 on cells (CHO-K1/CD20); assay: flow cytometry on CHO-K1/CD20 cells
[2] = target: T2, human CD47 on cells (CHO-K1/hCD47; human red blood cells RBC) (human, UniProt Q08722 19-323); assay: flow cytometry, RBC mixed 20:1 with Raji, 10 μg/mL
T2 construct: whole, on cells; also called CHO-K1/human CD47; 红细胞

hCD47-his = target: T3, hCD47-his (human, UniProt Q08722 19-139); assay: ELISA, hCD47-his coated
T3 construct: Bought protein coated on the ELISA plate; also called Cat#CD7-H5227; not shown: his tag
T3 sequence (Q08722 19-139 limits assumed): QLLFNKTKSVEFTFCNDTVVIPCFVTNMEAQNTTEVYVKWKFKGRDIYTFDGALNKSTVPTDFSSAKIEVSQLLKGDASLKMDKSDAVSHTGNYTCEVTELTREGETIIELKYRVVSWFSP

T2 sequence (Q08722 19-323): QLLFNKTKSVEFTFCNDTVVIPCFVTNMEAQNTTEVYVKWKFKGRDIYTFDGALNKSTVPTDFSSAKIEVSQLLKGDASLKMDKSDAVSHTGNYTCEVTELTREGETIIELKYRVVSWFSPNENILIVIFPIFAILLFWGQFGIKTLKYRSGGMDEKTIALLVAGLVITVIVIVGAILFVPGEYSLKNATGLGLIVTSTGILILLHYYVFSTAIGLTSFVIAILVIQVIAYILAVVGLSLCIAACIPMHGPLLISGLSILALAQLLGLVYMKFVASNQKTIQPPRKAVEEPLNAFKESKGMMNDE

| Binder | binding result [1] | binding result [2] | binding result (hCD47-his) |
| --- | --- | --- | --- |
| 9020-1RP-1C1 (bispecific antibody, not shown: light chain constant region of the CD20 antibody) heavy: not shown light: QIVLSQSPAILSASPGEKVTMTCRASSSVSYIHWFQQKPGSSPKPWIYATSNLASGVPVRFSGSGSGTSYSLTISRVEAEDAATYYCQQWTSNPPTFGGGTKLEIK | binds | binds | – |
| 9020-1RP-1C2 (bispecific antibody, linker changed; not shown: light chain constant region of the CD20 antibody) heavy: not shown light: QIVLSQSPAILSASPGEKVTMTCRASSSVSYIHWFQQKPGSSPKPWIYATSNLASGVPVRFSGSGSGTSYSLTISRVEAEDAATYYCQQWTSNPPTFGGGTKLEIK | binds | binds | – |
| 9020-6RP (bispecific antibody, Bispecific light chain co-transfected with the CD20 antibody heavy chain; not shown: IgG1 constant region) heavy: QVQLQQPGAELVKPGASVKMSCKASGYTFTSYNMHWVKQTPGRGLEWIGAIYPGNGDTSYNQKFKGKATLTADKSSSTAYMQLSSLTSEDSAVYYCARSTYYGGDWYFNVWGAGTTVTVSA light: not shown | binds | – | – |
| 重组蛋白CD002 (Fc fusion, Control recombinant protein; the format is not described; not shown: not described) EEELQVIQPDKSVSVAAGESAILHCTVTSLFPVGPIQWFRGAGPARELIYNQRQGPFPRVTTVSETTKRENMDFSISISAITPADAGTYYCVKFRKGSPDTEFKSGAGTELSVRAKPS | – | – | binds |
